Assay results reported in patent US20180030455A1.

Target: vitreal Sema3A of STZ-treated diabetic mice (endogenous mouse Semaphorin3A) (mouse) (UniProt O08665)
Assay: cell-based or functional assay

UniProt O08665, sequence (O08665 21-772 limits assumed): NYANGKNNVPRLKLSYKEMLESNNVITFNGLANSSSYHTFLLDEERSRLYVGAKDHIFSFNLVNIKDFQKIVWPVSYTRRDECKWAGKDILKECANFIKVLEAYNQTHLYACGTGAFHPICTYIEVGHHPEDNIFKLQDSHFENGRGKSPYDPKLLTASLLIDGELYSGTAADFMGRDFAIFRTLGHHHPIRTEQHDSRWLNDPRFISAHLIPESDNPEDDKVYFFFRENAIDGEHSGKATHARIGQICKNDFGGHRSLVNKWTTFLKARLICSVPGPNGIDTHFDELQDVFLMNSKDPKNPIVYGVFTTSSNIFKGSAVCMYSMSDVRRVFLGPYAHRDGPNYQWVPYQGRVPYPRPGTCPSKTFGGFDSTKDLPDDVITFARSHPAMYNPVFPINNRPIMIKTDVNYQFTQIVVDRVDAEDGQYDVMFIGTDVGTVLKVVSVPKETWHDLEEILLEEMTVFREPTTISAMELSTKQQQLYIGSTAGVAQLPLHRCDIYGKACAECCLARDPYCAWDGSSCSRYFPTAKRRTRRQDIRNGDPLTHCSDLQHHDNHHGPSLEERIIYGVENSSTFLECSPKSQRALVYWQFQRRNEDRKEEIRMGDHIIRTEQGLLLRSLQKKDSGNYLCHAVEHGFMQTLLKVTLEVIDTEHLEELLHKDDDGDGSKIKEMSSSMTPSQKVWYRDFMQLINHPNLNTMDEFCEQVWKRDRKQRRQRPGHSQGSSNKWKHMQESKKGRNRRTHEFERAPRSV

reduction in retinal permeability (Evans Blue permeation) at week 8 of diabetes, after intravitreal injection of rNrp-1 in STZ mice at weeks 6 and 7: 48.1%
Substance: recombinant mouse soluble Neuropilin-1 (rmNRP1) (from UniProt P97333 22-856) (receptor)
